Measurements published in article PMC10709652, “The separation pin distinguishes the pro– and anti–recombinogenic functions of Saccharomyces cerevisiae Srs2” (Nature Communications, 2023).
Substitutions are numbered along the chain they refer to. In names and notes the source's numbering stands.

B1: Srs2^898 (GFP-Srs2 1-898) (Saccharomyces cerevisiae S288C; F285A) (protein)
chain: MSSNNDLWLHLVSQLNTQQRAAALFDYTRGLQVIAGPGTGKTKVLTSRVAYLILHHHIHPRDIIVTTFTNKAANEMKERLQEMLRGAGVNISELLIGTFHSICLKILYRFGHLVDLQKDWRIIDEKEIDVILDDMIEKVPDQIRDYASSITRKVNLCMPSKNGDEWTIHPKLIKKQISKLKSNAILPEEYILDSNHDAALGYFYQIYQSELSKKNTLDFDDLLMYTFRLLTRVRVLSNIKHVLVDEFQDTNGIQLDLMFLFAKGNHHLSRGMTIVGDPDQSIYAARNALAHNFLEMGRKCPIEYSTIILVENYRSSQKILNTSEILITQQNKGRQNRAPLRAQFDLDFPPVYMNFPAYFLEAPSLVRELLYLKALPNLFTFNDFAILVRQRRQIKRIESALIEHRIPYKIIRGHSFWDSKETRAMLNLLKLIFSPNDKHAILASLLYPARGLGPATGEKIKNALDTLATDVSCFQILKDISSKKIMLDIPTKGRSVIADFISMIENCQLLLQSTLLGGLSDLFDKLYELSGLKYEYLYKDGKKKNDQLEKSEPNLLNARHKNIELLKNYFLALLSKSESSDKEKNEAIKAATDEAEPIENKVITPKEYLRNFFNSLSLHSDAAEEEESESNKDAKIKREKNGFVTISTIHGAKGLEWPVVFIPGCEEGIIPCVFNDDKKDESEEDEEEDQENSKKDASPKKTRVLSVEDSIDEERRMFFVAQTRAKYLLYLSNTVTVEDVDRPRIASRFLTTDLIKAMSDSQKLFESTNSIKKLYRILNKKPPAEDDKLFSLDQLRKDYNQFIENRRERMIWQGIQMNDVYGIQLSRNKLLGSVSDFTSAADQLRLETQNSIFPQKKLIEKSRPSKINGNYAPKSRVKSPEKRYAPETTSFHSPTKKK
notes: residues 1-898 of 1174 (C-terminal 276 residues omitted), N-terminal GFP tag kept, pET15b, Talon purified; expressed in E. coli Rosetta2 (DE3)
B2: Srs2^898 (GFP-Srs2 1-898) (Saccharomyces cerevisiae S288C; Y775A) (protein)
chain: B1 chain with A285F, Y775A
notes: as for B1
B3: Srs2^898 (GFP-Srs2 1-898) (Saccharomyces cerevisiae S288C; F68A) (protein)
chain: B1 chain with F68A, A285F
notes: as for B1
B4: Srs2^898 (GFP-Srs2 1-898) (Saccharomyces cerevisiae S288C; H650A) (protein)
chain: B1 chain with A285F, H650A
notes: as for B1
B5: Srs2^898 (GFP-Srs2 1-898) (Saccharomyces cerevisiae S288C; P671A) (protein)
chain: B1 chain with A285F, P671A
notes: as for B1

Tests used:
GFP-Srs2 1-898 (WT) = GFP-Srs2 1-898 (WT) (Saccharomyces cerevisiae, UniProt P12954 1-898); test: EMSA; no ATP; 30 mM Tris-HCl pH 7.6, 100 mM KCl, 2 mM MgCl2, 1 mM DTT, 0.2 mg/mL BSA, 30 °C 10 min, no ATP; 1.3 µM (nucleotides) ssDNA, 10-100 nM protein; 10% native PAGE in; conditions: protein: recombinant; tags: N-terminal GFP; label: 5' fluorescein
Sequence of GFP-Srs2 1-898 (WT) (P12954 1-898): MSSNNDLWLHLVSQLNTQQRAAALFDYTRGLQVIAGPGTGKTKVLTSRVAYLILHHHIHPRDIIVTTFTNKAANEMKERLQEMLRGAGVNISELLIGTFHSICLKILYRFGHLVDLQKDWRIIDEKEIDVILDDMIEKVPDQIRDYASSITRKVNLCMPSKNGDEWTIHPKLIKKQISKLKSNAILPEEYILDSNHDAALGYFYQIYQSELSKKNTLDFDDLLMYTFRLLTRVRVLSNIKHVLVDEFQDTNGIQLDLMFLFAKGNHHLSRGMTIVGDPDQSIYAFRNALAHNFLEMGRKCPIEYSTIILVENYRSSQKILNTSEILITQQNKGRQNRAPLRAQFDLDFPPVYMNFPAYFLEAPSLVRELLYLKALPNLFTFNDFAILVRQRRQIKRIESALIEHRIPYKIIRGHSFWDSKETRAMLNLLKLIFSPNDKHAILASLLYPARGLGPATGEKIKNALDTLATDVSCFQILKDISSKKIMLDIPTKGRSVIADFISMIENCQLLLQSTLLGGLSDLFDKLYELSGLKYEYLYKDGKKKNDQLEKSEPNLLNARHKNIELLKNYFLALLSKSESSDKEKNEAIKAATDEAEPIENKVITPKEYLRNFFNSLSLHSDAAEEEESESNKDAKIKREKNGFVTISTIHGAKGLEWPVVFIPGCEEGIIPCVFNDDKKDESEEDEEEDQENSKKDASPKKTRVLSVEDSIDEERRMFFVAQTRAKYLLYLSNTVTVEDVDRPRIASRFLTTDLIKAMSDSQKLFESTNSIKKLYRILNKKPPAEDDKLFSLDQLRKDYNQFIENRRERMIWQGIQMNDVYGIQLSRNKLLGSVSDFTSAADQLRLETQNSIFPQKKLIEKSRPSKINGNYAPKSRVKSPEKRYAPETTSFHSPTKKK

Srs2 898 H650A = Srs2 898 H650A (Saccharomyces cerevisiae, UniProt P12954 1-898, H650A); test: as above; conditions: protein: recombinant; tags: N-terminal GFP; label: 5' fluorescein
Sequence of Srs2 898 H650A (P12954 1-898 H650A): as the sequence (P12954 1-898) above, with H650A counted along it

Srs2 898 F68A = Srs2 898 F68A (Saccharomyces cerevisiae, UniProt P12954 1-898, F68A); test: as above; conditions: protein: recombinant; tags: N-terminal GFP; label: 5' fluorescein
Sequence of Srs2 898 F68A (P12954 1-898 F68A): as the sequence (P12954 1-898) above, with F68A counted along it

Srs2 898 F285A = Srs2 898 F285A (Saccharomyces cerevisiae, UniProt P12954 1-898, F285A); test: as above; conditions: protein: recombinant; tags: N-terminal GFP; label: 5' fluorescein
Srs2 898 N70A = Srs2 898 N70A (Saccharomyces cerevisiae, UniProt P12954 1-898, N70A); test: as above; conditions: protein: recombinant; tags: N-terminal GFP; label: 5' fluorescein
Sequence of Srs2 898 N70A (P12954 1-898 N70A): as the sequence (P12954 1-898) above, with N70A counted along it

Srs2 898 F219A = Srs2 898 F219A (Saccharomyces cerevisiae, UniProt P12954 1-898, F219A); test: EMSA; no ATP; Kd within 10% of WT; 30 mM Tris-HCl pH 7.6, 100 mM KCl, 2 mM MgCl2, 1 mM DTT, 0.2 mg/mL BSA, 30 °C 10 min, no ATP; 1.3 µM (nucleotides) ssDNA, 10-100 nM protein; 10% native PAGE in; conditions: protein: recombinant; tags: N-terminal GFP; label: 5' fluorescein
Srs2 898 H100A = Srs2 898 H100A (Saccharomyces cerevisiae, UniProt P12954 1-898, H100A); test: as above; conditions: protein: recombinant; tags: N-terminal GFP; label: 5' fluorescein
Srs2 898 R286A = Srs2 898 R286A (Saccharomyces cerevisiae, UniProt P12954 1-898, R286A); test: EMSA; no ATP; Kd within 10% of WT (printed R268A); 30 mM Tris-HCl pH 7.6, 100 mM KCl, 2 mM MgCl2, 1 mM DTT, 0.2 mg/mL BSA, 30 °C 10 min, no ATP; 1.3 µM (nucleotides) ssDNA, 10-100 nM protein; 10% native PAGE in; conditions: protein: recombinant; tags: N-terminal GFP; label: 5' fluorescein
Srs2 898 Y283A = Srs2 898 Y283A (Saccharomyces cerevisiae, UniProt P12954 1-898, Y283A); test: EMSA; no ATP; Kd within 10% of WT (printed Y238A); 30 mM Tris-HCl pH 7.6, 100 mM KCl, 2 mM MgCl2, 1 mM DTT, 0.2 mg/mL BSA, 30 °C 10 min, no ATP; 1.3 µM (nucleotides) ssDNA, 10-100 nM protein; 10% native PAGE in; conditions: protein: recombinant; tags: N-terminal GFP; label: 5' fluorescein
[1] = substrate: Nc1ncnc2c1ncn2[C@@H]1O[C@H](COP(=O)(O)OP(=O)(O)OP(=O)(O)O)[C@@H](O)[C@H]1O; test: ATP hydrolysis, gamma-32P-ATP, thin layer chromatography; type: biochemical, Saccharomyces cerevisiae; conditions: M13 ssDNA 2.5 µM (nucleotides), 2 mM MgCl2, 100 mM KCl, pH 7.6, 30 °C, 40 nM protein
[2] = substrate: Nc1ncnc2c1ncn2[C@@H]1O[C@H](COP(=O)(O)OP(=O)(O)OP(=O)(O)O)[C@@H](O)[C@H]1O; test: as above; type: biochemical, Saccharomyces cerevisiae; conditions: M13 ssDNA 2.5 µM (nucleotides), 2 mM MgCl2, 100 mM KCl, pH 7.6, 30 °C, 40 nM protein; remark: listed apart in the source
Text: ATP hydrolysis, gamma-32P-ATP, thin layer chromatography on Srs2^898 (GFP-Srs2 1-898) | The F68A, P671A, and Y775A mutants were all largely unperturbed with respect to ATP hydrolysis

Row | Binder | Km [1] [µM] | kcat [1] [sec–1] | Km [2] [µM] | kcat [2] [sec–1] | also measured
1 | ATTAAGCTCTAAGCCATGAATTCAAATGACCTCTTATCAA (ssDNA) [40-nt ssDNA] | – | – | – | – | Kd (GFP-Srs2 1-898 (WT)): 0.029 ± 0.003 µM; Kd (Srs2 898 H650A): 0.046 ± 0.003 µM; Kd (Srs2 898 F68A): 0.031 ± 0.002 µM; Kd (Srs2 898 F285A): 0.041 µM; Kd (Srs2 898 N70A): 0.03 ± 0.003 µM; binding result (Srs2 898 F219A): binds; binding result (Srs2 898 H100A): binds; binding result (Srs2 898 R286A): binds; binding result (Srs2 898 Y283A): binds
2 | B1 | 2750 ± 790 | 25 ± 4 | – | – | –
3 | B2 | – | – | 1610 ± 740 | 51 ± 8 | –
4 | B3 | – | – | 1520 ± 710 | 49 ± 8 | –
5 | B4 | 2910 ± 780 | 15 ± 2 | – | – | –
6 | B5 | – | – | 1590 ± 720 | 50 ± 7 | –
